In patent publication US20180155451A1 (published 2018):

T1: FcγRIIb extracellular domain with C-terminal His tag (human, UniProt P31994 43-217)
T1 construct: extracellular domain; expressed in FreeStyle293 cells; analyte in the Biacore assay; also called FcgRIIb; 2b; not shown: His tag at the C terminus
T1 sequence (looked up): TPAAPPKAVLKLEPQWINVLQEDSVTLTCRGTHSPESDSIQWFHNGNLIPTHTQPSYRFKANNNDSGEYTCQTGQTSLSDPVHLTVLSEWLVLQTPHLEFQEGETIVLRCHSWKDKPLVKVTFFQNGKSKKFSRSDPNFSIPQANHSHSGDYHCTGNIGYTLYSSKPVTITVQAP


These binders were tested against T1, FcγRIIb extracellular domain with … (assay: SPR (Biacore), captured antibody, FcγRIIb analyte; binding relative to GpH7-A5/GpH7-B3/GpL16-k0 = 100).

Row | Binder | He/Con_2b
1 | GpH7-A5/GpH7-B3 variant T335_15Y/GpL16-k0 (antibody, human IgG1, kappa, heterodimerized; mutation in the B3 H chain only; also called He Ab T335_15Y) heavy 1: not shown heavy 2: not shown light: DIVMTQSPLSLPVTPGEPASISCQASESLVHSNRNTYLHWYLQKPGQSPQLLIYKVSNRFSGVPDRFSGSGSGTDFTLKISRVEAEDVGVYYCSQNTHVPPTFGQGTKVEIERTVAAPSVFIFPPSDEQLKSGTASVVCLLNNFYPREAKVQWKVDNALQSGNSQESVTEQDSKDSTYSLSSTLTLSKADYEKHKVYACEVTHQGLSSPVTKSFNRGEC | 108 % of control
2 | GpH7-A5/GpH7-B3 variant V266_06M/GpL16-k0 (antibody, human IgG1, kappa, heterodimerized; mutation in the B3 H chain only; also called He Ab V266_06M) heavy 1: not shown heavy 2: not shown light: DIVMTQSPLSLPVTPGEPASISCQASESLVHSNRNTYLHWYLQKPGQSPQLLIYKVSNRFSGVPDRFSGSGSGTDFTLKISRVEAEDVGVYYCSQNTHVPPTFGQGTKVEIERTVAAPSVFIFPPSDEQLKSGTASVVCLLNNFYPREAKVQWKVDNALQSGNSQESVTEQDSKDSTYSLSSTLTLSKADYEKHKVYACEVTHQGLSSPVTKSFNRGEC | 251 % of control
3 | GpH7-A5/GpH7-B3 variant Y296_20W/GpL16-k0 (antibody, human IgG1, kappa, heterodimerized; mutation in the B3 H chain only; also called He Ab Y296_20W) heavy 1: not shown heavy 2: not shown light: DIVMTQSPLSLPVTPGEPASISCQASESLVHSNRNTYLHWYLQKPGQSPQLLIYKVSNRFSGVPDRFSGSGSGTDFTLKISRVEAEDVGVYYCSQNTHVPPTFGQGTKVEIERTVAAPSVFIFPPSDEQLKSGTASVVCLLNNFYPREAKVQWKVDNALQSGNSQESVTEQDSKDSTYSLSSTLTLSKADYEKHKVYACEVTHQGLSSPVTKSFNRGEC | 103 % of control

What follows are binders tested against T2, FcγRIIIa extracellular domain with C-terminal His tag (human, UniProt P08637 17-208) (assay: SPR, relative to GpH7-B3/GpL16-k0).
T2 construct: extracellular domain; also called FcgRIIIa; 3a
T2 sequence (P08637 17-208): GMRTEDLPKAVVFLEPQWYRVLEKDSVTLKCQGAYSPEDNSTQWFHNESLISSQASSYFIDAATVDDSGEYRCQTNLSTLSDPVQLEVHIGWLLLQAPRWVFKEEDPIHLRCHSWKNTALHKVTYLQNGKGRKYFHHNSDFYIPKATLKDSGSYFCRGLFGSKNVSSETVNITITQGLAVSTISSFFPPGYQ

Row | Binder | Ho/Con_3a
4 | GpH7-B3 variant K334_01G/GpL16-k0 (antibody, human IgG1, kappa, homodimerized IgG1, mutation in both H chains; also called Ho Ab) heavy: not shown light: DIVMTQSPLSLPVTPGEPASISCQASESLVHSNRNTYLHWYLQKPGQSPQLLIYKVSNRFSGVPDRFSGSGSGTDFTLKISRVEAEDVGVYYCSQNTHVPPTFGQGTKVEIERTVAAPSVFIFPPSDEQLKSGTASVVCLLNNFYPREAKVQWKVDNALQSGNSQESVTEQDSKDSTYSLSSTLTLSKADYEKHKVYACEVTHQGLSSPVTKSFNRGEC | 104 % of control (=100)
5 | GpH7-B3 variant A330_08L/GpL16-k0 (antibody, human IgG1, kappa, homodimerized IgG1, mutation in both H chains; also called Ho Ab) heavy: not shown light: DIVMTQSPLSLPVTPGEPASISCQASESLVHSNRNTYLHWYLQKPGQSPQLLIYKVSNRFSGVPDRFSGSGSGTDFTLKISRVEAEDVGVYYCSQNTHVPPTFGQGTKVEIERTVAAPSVFIFPPSDEQLKSGTASVVCLLNNFYPREAKVQWKVDNALQSGNSQESVTEQDSKDSTYSLSSTLTLSKADYEKHKVYACEVTHQGLSSPVTKSFNRGEC | 138 % of control (=100)
6 | GpH7-B3 variant E333_16H/GpL16-k0 (antibody, human IgG1, kappa, homodimerized IgG1, mutation in both H chains; also called Ho Ab) heavy: not shown light: DIVMTQSPLSLPVTPGEPASISCQASESLVHSNRNTYLHWYLQKPGQSPQLLIYKVSNRFSGVPDRFSGSGSGTDFTLKISRVEAEDVGVYYCSQNTHVPPTFGQGTKVEIERTVAAPSVFIFPPSDEQLKSGTASVVCLLNNFYPREAKVQWKVDNALQSGNSQESVTEQDSKDSTYSLSSTLTLSKADYEKHKVYACEVTHQGLSSPVTKSFNRGEC | 111 % of control (=100)
7 | GpH7-B3 variant H268_13S/GpL16-k0 (antibody, human IgG1, kappa, homodimerized IgG1, mutation in both H chains; also called Ho Ab) heavy: not shown light: DIVMTQSPLSLPVTPGEPASISCQASESLVHSNRNTYLHWYLQKPGQSPQLLIYKVSNRFSGVPDRFSGSGSGTDFTLKISRVEAEDVGVYYCSQNTHVPPTFGQGTKVEIERTVAAPSVFIFPPSDEQLKSGTASVVCLLNNFYPREAKVQWKVDNALQSGNSQESVTEQDSKDSTYSLSSTLTLSKADYEKHKVYACEVTHQGLSSPVTKSFNRGEC | 130 % of control (=100)
8 | GpH7-B3 variant I332_01G/GpL16-k0 (antibody, human IgG1, kappa, homodimerized IgG1, mutation in both H chains; also called Ho Ab) heavy: not shown light: DIVMTQSPLSLPVTPGEPASISCQASESLVHSNRNTYLHWYLQKPGQSPQLLIYKVSNRFSGVPDRFSGSGSGTDFTLKISRVEAEDVGVYYCSQNTHVPPTFGQGTKVEIERTVAAPSVFIFPPSDEQLKSGTASVVCLLNNFYPREAKVQWKVDNALQSGNSQESVTEQDSKDSTYSLSSTLTLSKADYEKHKVYACEVTHQGLSSPVTKSFNRGEC | 104 % of control (=100)
9 | GpH7-B3 variant I332_02A/GpL16-k0 (antibody, human IgG1, kappa, homodimerized IgG1, mutation in both H chains; also called Ho Ab) heavy: not shown light: DIVMTQSPLSLPVTPGEPASISCQASESLVHSNRNTYLHWYLQKPGQSPQLLIYKVSNRFSGVPDRFSGSGSGTDFTLKISRVEAEDVGVYYCSQNTHVPPTFGQGTKVEIERTVAAPSVFIFPPSDEQLKSGTASVVCLLNNFYPREAKVQWKVDNALQSGNSQESVTEQDSKDSTYSLSSTLTLSKADYEKHKVYACEVTHQGLSSPVTKSFNRGEC | 114 % of control (=100)
10 | GpH7-B3 variant I332_09D/GpL16-k0 (antibody, human IgG1, kappa, homodimerized IgG1, mutation in both H chains; also called Ho Ab) heavy: not shown light: DIVMTQSPLSLPVTPGEPASISCQASESLVHSNRNTYLHWYLQKPGQSPQLLIYKVSNRFSGVPDRFSGSGSGTDFTLKISRVEAEDVGVYYCSQNTHVPPTFGQGTKVEIERTVAAPSVFIFPPSDEQLKSGTASVVCLLNNFYPREAKVQWKVDNALQSGNSQESVTEQDSKDSTYSLSSTLTLSKADYEKHKVYACEVTHQGLSSPVTKSFNRGEC | 255 % of control (=100)
11 | GpH7-B3 variant I332_10E/GpL16-k0 (antibody, human IgG1, kappa, homodimerized IgG1, mutation in both H chains; also called Ho Ab) heavy: not shown light: DIVMTQSPLSLPVTPGEPASISCQASESLVHSNRNTYLHWYLQKPGQSPQLLIYKVSNRFSGVPDRFSGSGSGTDFTLKISRVEAEDVGVYYCSQNTHVPPTFGQGTKVEIERTVAAPSVFIFPPSDEQLKSGTASVVCLLNNFYPREAKVQWKVDNALQSGNSQESVTEQDSKDSTYSLSSTLTLSKADYEKHKVYACEVTHQGLSSPVTKSFNRGEC | 278 % of control (=100)
12 | GpH7-B3 variant I332_13S/GpL16-k0 (antibody, human IgG1, kappa, homodimerized IgG1, mutation in both H chains; also called Ho Ab) heavy: not shown light: DIVMTQSPLSLPVTPGEPASISCQASESLVHSNRNTYLHWYLQKPGQSPQLLIYKVSNRFSGVPDRFSGSGSGTDFTLKISRVEAEDVGVYYCSQNTHVPPTFGQGTKVEIERTVAAPSVFIFPPSDEQLKSGTASVVCLLNNFYPREAKVQWKVDNALQSGNSQESVTEQDSKDSTYSLSSTLTLSKADYEKHKVYACEVTHQGLSSPVTKSFNRGEC | 112 % of control (=100)

Further lines, results first:

Row | Ho/Con_3a | Binder
13 | 174 % of control (=100) | GpH7-B3 variant A330_04F/GpL16-k0 (antibody, human IgG1, kappa, homodimerized IgG1, mutation in both H chains; also called Ho Ab) heavy: not shown light: DIVMTQSPLSLPVTPGEPASISCQASESLVHSNRNTYLHWYLQKPGQSPQLLIYKVSNRFSGVPDRFSGSGSGTDFTLKISRVEAEDVGVYYCSQNTHVPPTFGQGTKVEIERTVAAPSVFIFPPSDEQLKSGTASVVCLLNNFYPREAKVQWKVDNALQSGNSQESVTEQDSKDSTYSLSSTLTLSKADYEKHKVYACEVTHQGLSSPVTKSFNRGEC
14 | 118 % of control (=100) | GpH7-B3 variant A330_20W/GpL16-k0 (antibody, human IgG1, kappa, homodimerized IgG1, mutation in both H chains; also called Ho Ab) heavy: not shown light: DIVMTQSPLSLPVTPGEPASISCQASESLVHSNRNTYLHWYLQKPGQSPQLLIYKVSNRFSGVPDRFSGSGSGTDFTLKISRVEAEDVGVYYCSQNTHVPPTFGQGTKVEIERTVAAPSVFIFPPSDEQLKSGTASVVCLLNNFYPREAKVQWKVDNALQSGNSQESVTEQDSKDSTYSLSSTLTLSKADYEKHKVYACEVTHQGLSSPVTKSFNRGEC
15 | 220 % of control (=100) | GpH7-B3 variant H268_09D/GpL16-k0 (antibody, human IgG1, kappa, homodimerized IgG1, mutation in both H chains; also called Ho Ab) heavy: not shown light: DIVMTQSPLSLPVTPGEPASISCQASESLVHSNRNTYLHWYLQKPGQSPQLLIYKVSNRFSGVPDRFSGSGSGTDFTLKISRVEAEDVGVYYCSQNTHVPPTFGQGTKVEIERTVAAPSVFIFPPSDEQLKSGTASVVCLLNNFYPREAKVQWKVDNALQSGNSQESVTEQDSKDSTYSLSSTLTLSKADYEKHKVYACEVTHQGLSSPVTKSFNRGEC
16 | 2060 % of control (=100) | GpH7-B3 variant H268_10E/GpL16-k0 (antibody, human IgG1, kappa, homodimerized IgG1, mutation in both H chains; also called Ho Ab) heavy: not shown light: DIVMTQSPLSLPVTPGEPASISCQASESLVHSNRNTYLHWYLQKPGQSPQLLIYKVSNRFSGVPDRFSGSGSGTDFTLKISRVEAEDVGVYYCSQNTHVPPTFGQGTKVEIERTVAAPSVFIFPPSDEQLKSGTASVVCLLNNFYPREAKVQWKVDNALQSGNSQESVTEQDSKDSTYSLSSTLTLSKADYEKHKVYACEVTHQGLSSPVTKSFNRGEC
